Columns and labels:
Protein A [1] = target: Protein A (UniProt P38507); test: LSPR (localized surface plasmon resonance) biosensor; Protein A immobilised by EDC/NHS on the gold-nanostructure sensor chip; IgG 0.45 mg/mL in running buffer, 1 mL injected at 1 mL/min, one injection (n = 1); running buffer 10 mM citrate, 150 mM NaCl, pH 4.0; room temperature; Langmuir 1:1 fit; apparent affinity
Protein A [2] = target: Protein A (UniProt P38507); test: LSPR (localized surface plasmon resonance) biosensor; Protein A immobilised by EDC/NHS on the gold-nanostructure sensor chip; IgG 0.45 mg/mL in running buffer, 1 mL injected at 1 mL/min, one injection (n = 1); running buffer PBS pH 7.4; room temperature; Langmuir 1:1 fit; apparent affinity
Protein A [3] = target: Protein A (UniProt P38507); test: LSPR (localized surface plasmon resonance) biosensor; Protein A immobilised by EDC/NHS on the gold-nanostructure sensor chip; IgG 0.45 mg/mL in running buffer, 1 mL injected at 1 mL/min, one injection (n = 1); running buffer 10 mM citrate, 150 mM NaCl, pH 3.8; room temperature; Langmuir 1:1 fit; apparent affinity
Protein A [4] = target: Protein A (UniProt P38507); test: LSPR (localized surface plasmon resonance) biosensor; Protein A immobilised by EDC/NHS on the gold-nanostructure sensor chip; IgG 0.45 mg/mL in running buffer, 1 mL injected at 1 mL/min, one injection (n = 1); running buffer 10 mM citrate, 150 mM NaCl, pH 3.5; room temperature; Langmuir 1:1 fit; apparent affinity
[5] = target: Human IgG1, monomer fraction (human); test: SEC-MALS; SEC-MALS-RI-UV on Superdex 200 Increase 10/300 GL, 1 mL/min, 100 uL injected, room temperature; 0.45 mg/mL total IgG; aggregate fraction of the IgG1 batch
[6] = target: Human IgG1 monoclonal antibody, monomer fraction (UniProt P01857); test: LSPR (localized surface plasmon resonance) fiber-optical nanoplasmonic biosensor, ArgusEye AB; settings: room temperature under ambient conditions, pH 7.4: 140 mM sodium chloride, 2.7 mM potassium chloride, 10 mM phosphate, pH 4.0, 3.8 and 3.5: 150 mM NaCl with 10 mM citrate, pH 7.4: PBS (10 mM phosphate), pH 4.0, 3.8 and 3.5: 10 mM citrate (Methods and Results text). The Figure 3 caption state
[7] = target: Human IgG1 monoclonal antibody, aggregate fraction (mainly dimers) (UniProt P01857); test: as above; settings: room temperature under ambient conditions, pH 7.4: 140 mM sodium chloride, 2.7 mM potassium chloride, 10 mM phosphate, pH 4.0, 3.8 and 3.5: 150 mM NaCl with 10 mM citrate, pH 7.4: PBS (10 mM phosphate), pH 4.0, 3.8 and 3.5: 10 mM citrate (Methods and Results text). The Figure 3 caption state

Substance | Kd (Protein A [1]) | koff (Protein A [1]) | kon (Protein A [1]) | Kd (Protein A [2]) | koff (Protein A [2]) | kon (Protein A [2]) | Kd (Protein A [3]) | koff (Protein A [3]) | kon (Protein A [3]) | Kd (Protein A [4]) | koff (Protein A [4]) | kon (Protein A [4]) | further results
Human IgG1, aggregate fraction (antibody) | 26 nM | 0.00092 s⁻¹ | 36000 M⁻¹ s⁻¹ | 1.2 nM | 2.9e-05 s⁻¹ | 25000 M⁻¹ s⁻¹ | 65 nM | 0.0024 s⁻¹ | 36000 M⁻¹ s⁻¹ | 350 nM | 0.0099 s⁻¹ | 28000 M⁻¹ s⁻¹ | –
Human IgG1, monomer fraction (antibody) | 130 nM | 0.004 s⁻¹ | 31000 M⁻¹ s⁻¹ | 1.3 nM | 2.9e-05 s⁻¹ | 22000 M⁻¹ s⁻¹ | 330 nM | 0.01 s⁻¹ | 30000 M⁻¹ s⁻¹ | 660 nM | 0.011 s⁻¹ | 17000 M⁻¹ s⁻¹ | stoichiometry N [5]: 2
Protein A (staphylococcal protein A, SpA) | – | – | – | – | – | – | – | – | – | – | – | – | koff ([6]; pH 3.5): 0.011 s⁻¹; kon ([6]; pH 3.5): 17000 M⁻¹ s⁻¹; koff ([6]; pH 3.8): 0.01 s⁻¹; kon ([6]; pH 3.8): 30000 M⁻¹ s⁻¹; koff ([6]; pH 4.0): 0.004 s⁻¹; kon ([6]; pH 4.0): 31000 M⁻¹ s⁻¹; koff ([6]; pH 7.4): 2.9e-05 s⁻¹; kon ([6]; pH 7.4): 22000 M⁻¹ s⁻¹; koff ([7]; pH 3.5): 0.0099 s⁻¹; kon ([7]; pH 3.5): 28000 M⁻¹ s⁻¹; koff ([7]; pH 3.8): 0.0024 s⁻¹; kon ([7]; pH 3.8): 36000 M⁻¹ s⁻¹; koff ([7]; pH 4.0): 0.00092 s⁻¹; kon ([7]; pH 4.0): 36000 M⁻¹ s⁻¹; koff ([7]; pH 7.4): 2.9e-05 s⁻¹; kon ([7]; pH 7.4): 25000 M⁻¹ s⁻¹
